Residue numbers refer to the chain shown, from its start.

Here are results for seven variants from PMC3887213.

The chains are these.
B1: LRRK2 RocCOR tandem domain (LexA-BD bait, wild type) [human] / TUBB4 C terminus (Phe-317 to Ala-444), GAL4-AD prey [human] (parent)
chain 1: KAVPYNRMKLMIVGNTGSGKTTLLQQLMKTKKSDLGMQSATVGIDVKDWPIQIRDKRKRDLVLNVWDFAGREEFYSTHPHFMTQRALYLAVYDLSKGQAEVDAMKPWLFNIKARASSSPVILVGTHLDVSDEKQRKACMSKITKELLNKRGFPAIRDYHFVNATEESDALAKLRKTIINESLNFKIRDQLVVGQLIPDCYVELEKIILSERKNVPIEFPVIDRKRLLQLVRENQLQLDENELPHAVHFLNESGVLLHFQDPALQLSDLYFVEPKWLCKIMAQILTVKVEGCPKHPKGIISRRDVEKFLSKKRKFPKNYMSQYFKLLEKFQIALPIGEEYLLVPSSLSDHRPVIELPHCENSEIIIRLYEMPYFPMGFWSRLINRLLEISPYMLSGRERALRPNRMYWRQGIYL
chain 2: FRGRMSMKEVDEQMLSVQSKNSSYFVEWIPNNVKTAVCDIPPRGLKMAATFIGNSTAIQELFKRISEQFTAMFRRKAFLHWYTGEGMDEMEFTEAESNMNDLVSEYQQYQDATAEEGEFEEEAEEEVA
B2: LRRK2 RocCOR tandem domain (LexA-BD bait, wild type) [human] / TUBB C terminus (Phe-317 to the stop codon), GAL4-AD prey [human] (parent)
chain 1: B1 chain 1
chain 2: B1 chain 2 with S16N, S19N, A49V, G117E, F119D, E120F, E121G, A123E, E124A, V127E

The variants in the first test derive from B1. The test can be described thus: quantitative yeast two-hybrid (Q-YTH). The settings on record: with TUBB4 C terminus (Phe-317 to Ala-444), n = 5, read off a plot.
As for chain 1 KAVPYNRMKLMIVGNTGSGKTTLLQQLMKTKKSDLGMQSATVGIDVKDWPIQIRDKRKRDLVLNVWDFAGREEFYSTHPHFMTQRALYLAVYDLSKGQAEVDAMKPWLFNIKARASSSPVILVGTHLDVSDEKQRKACMSKITKELLNKRGFPAIRDYHFVNAAEESDALAKLRKTIINESLNFKIRDQLVVGQLIPDCYVELEKIILSERKNVPIEFPVIDRKRLLQLVRENQLQLDENELPHAVHFLNESGVLLHFQDPALQLSDLYFVEPKWLCKIMAQILTVKVEGCPKHPKGIISRRDVEKFLSKKRKFPKNYMSQYFKLLEKFQIALPIGEEYLLVPSSLSDHRPVIELPHCENSEIIIRLYEMPYFPMGFWSRLINRLLEISPYMLSGRERALRPNRMYWRQGIYL [chain 1 T164A], the percent of parent was found to be 86%.

For chain 1 KAVPYNRMKLMIVGNAGSGKTTLLQQLMKTKKSDLGMQSATVGIDVKDWPIQIRDKRKRDLVLNVWDFAGREEFYSTHPHFMTQRALYLAVYDLSKGQAEVDAMKPWLFNIKARASSSPVILVGTHLDVSDEKQRKACMSKITKELLNKRGFPAIRDYHFVNATEESDALAKLRKTIINESLNFKIRDQLVVGQLIPDCYVELEKIILSERKNVPIEFPVIDRKRLLQLVRENQLQLDENELPHAVHFLNESGVLLHFQDPALQLSDLYFVEPKWLCKIMAQILTVKVEGCPKHPKGIISRRDVEKFLSKKRKFPKNYMSQYFKLLEKFQIALPIGEEYLLVPSSLSDHRPVIELPHCENSEIIIRLYEMPYFPMGFWSRLINRLLEISPYMLSGRERALRPNRMYWRQGIYL [chain 1 T16A], the percent of parent amounted to 115%.

For chain 1 KAVPYNRMKLMIVGNDGSGKTTLLQQLMKTKKSDLGMQSATVGIDVKDWPIQIRDKRKRDLVLNVWDFAGREEFYSTHPHFMTQRALYLAVYDLSKGQAEVDAMKPWLFNIKARASSSPVILVGTHLDVSDEKQRKACMSKITKELLNKRGFPAIRDYHFVNATEESDALAKLRKTIINESLNFKIRDQLVVGQLIPDCYVELEKIILSERKNVPIEFPVIDRKRLLQLVRENQLQLDENELPHAVHFLNESGVLLHFQDPALQLSDLYFVEPKWLCKIMAQILTVKVEGCPKHPKGIISRRDVEKFLSKKRKFPKNYMSQYFKLLEKFQIALPIGEEYLLVPSSLSDHRPVIELPHCENSEIIIRLYEMPYFPMGFWSRLINRLLEISPYMLSGRERALRPNRMYWRQGIYL [chain 1 T16D], the percent of parent worked out at 62%.

In a further test the parent is B2. The test can be described thus: quantitative yeast two-hybrid (Q-YTH). The settings on record: with TUBB C terminus (Phe-317 to the stop codon), n = 5, read off a plot.
Consider chain 1 KAVPYNRMKLMIVGNDGSGKTTLLQQLMKTKKSDLGMQSATVGIDVKDWPIQIRDKRKRDLVLNVWDFAGREEFYSTHPHFMTQRALYLAVYDLSKGQAEVDAMKPWLFNIKARASSSPVILVGTHLDVSDEKQRKACMSKITKELLNKRGFPAIRDYHFVNATEESDALAKLRKTIINESLNFKIRDQLVVGQLIPDCYVELEKIILSERKNVPIEFPVIDRKRLLQLVRENQLQLDENELPHAVHFLNESGVLLHFQDPALQLSDLYFVEPKWLCKIMAQILTVKVEGCPKHPKGIISRRDVEKFLSKKRKFPKNYMSQYFKLLEKFQIALPIGEEYLLVPSSLSDHRPVIELPHCENSEIIIRLYEMPYFPMGFWSRLINRLLEISPYMLSGRERALRPNRMYWRQGIYL [chain 1 T16D], for which the percent of parent was 58%.

For chain 1 KAVPYNRMKLMIVGNAGSGKTTLLQQLMKTKKSDLGMQSATVGIDVKDWPIQIRDKRKRDLVLNVWDFAGREEFYSTHPHFMTQRALYLAVYDLSKGQAEVDAMKPWLFNIKARASSSPVILVGTHLDVSDEKQRKACMSKITKELLNKRGFPAIRDYHFVNATEESDALAKLRKTIINESLNFKIRDQLVVGQLIPDCYVELEKIILSERKNVPIEFPVIDRKRLLQLVRENQLQLDENELPHAVHFLNESGVLLHFQDPALQLSDLYFVEPKWLCKIMAQILTVKVEGCPKHPKGIISRRDVEKFLSKKRKFPKNYMSQYFKLLEKFQIALPIGEEYLLVPSSLSDHRPVIELPHCENSEIIIRLYEMPYFPMGFWSRLINRLLEISPYMLSGRERALRPNRMYWRQGIYL [chain 1 T16A], the percent of parent came to 130%.

Consider chain 1 KAVPYNRMKLMIVGNTGSGKTTLLQQLMKTKKSDLGMQSATVGIDVKDWPIQIRDKRKRDLVLNVWDFAGREEFYSTHPHFMTQRALYLAVYDLSKGQAEVDAMKPWLFNIKARASSSPVILVGTHLDVSDEKQRKACMSKITKELLNKRGFPAIRDYHFVNAAEESDALAKLRKTIINESLNFKIRDQLVVGQLIPDCYVELEKIILSERKNVPIEFPVIDRKRLLQLVRENQLQLDENELPHAVHFLNESGVLLHFQDPALQLSDLYFVEPKWLCKIMAQILTVKVEGCPKHPKGIISRRDVEKFLSKKRKFPKNYMSQYFKLLEKFQIALPIGEEYLLVPSSLSDHRPVIELPHCENSEIIIRLYEMPYFPMGFWSRLINRLLEISPYMLSGRERALRPNRMYWRQGIYL [chain 1 T164A], for which the percent of parent came out at 97%.

Consider chain 1 KAVPYNRMKLMIVGNTGSGKTTLLQQLMKTKKSDLGMQSATVGIDVKDWPIQIRDKRKRDLVLNVWDFAGREEFYSTHPHFMTQRALYLAVYDLSKGQAEVDAMKPWLFNIKARASSSPVILVGTHLDVSDEKQRKACMSKITKELLNKRGFPAIRDYHFVNADEESDALAKLRKTIINESLNFKIRDQLVVGQLIPDCYVELEKIILSERKNVPIEFPVIDRKRLLQLVRENQLQLDENELPHAVHFLNESGVLLHFQDPALQLSDLYFVEPKWLCKIMAQILTVKVEGCPKHPKGIISRRDVEKFLSKKRKFPKNYMSQYFKLLEKFQIALPIGEEYLLVPSSLSDHRPVIELPHCENSEIIIRLYEMPYFPMGFWSRLINRLLEISPYMLSGRERALRPNRMYWRQGIYL [chain 1 T164D], for which the percent of parent was 35%.
